In the nanobody polyreactivity screen of Harvey et al. (2022):

Assay: yeast display, Sf9 membrane polyspecificity reagent, FACS + sequencing; frameworks hold sequencing errors
Method in brief: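 A nanobody's polyreactivity label depends on the gate it was sorted from. Yeast display cells were stained with 10% biotinylated, detergent-solubilized Sf9 membrane reagent for 1 hour at 4 °C, enriched on streptavidin microbeads and sorted by FACS. The low and high (top ~1%) gates were set on anti-HA fluorescence for expression and streptavidin fluorescence for reagent binding.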

Which “polyreactivity (PSR sort gate)” value does the source give for “QVQLVESGGGLVQAGGSLRISCAPSGSTFPHNAMGWYRQAPGKERELVAAISSIGVRTYYADSVKGRFTISRDNAKNTVYLQMNSLKPEDTAVYYCAAEYDGPYTWVEYYYHYGYWGQGTQVTVSS” here?
The value was “high polyreactivity”.

With “QVQLVESGGGLVQAGGSLRLSCAASGSILLPYAMGRYRHAPGKERELVAAITYRGASTHYAASVKGRFTISRDNAKNTVYLQMNSLKQEDPAVYYCAARGWVYYASEMDYWGQGTQGTVSS” as the sequence, how does the “polyreactivity (PSR sort gate)” value read?
The value was “low polyreactivity”.

Which “polyreactivity (PSR sort gate)” value does the source give for “QVQLVESGGGLVQAGGSLRLSCAASGFTFLAYAMGWYRQAPGKERELVAAISRSGGRTYYADSVKGRFTISRDNAKNTVYLQMNSLNPEDTAVYYCAAPPRANLFDYWGQGTQVTVSS” here?
The value was “high polyreactivity”.

With “QVQLVESGGGLVQAGGSLRLSCAASGRIFSLYAMGWYRQAPGKERELVAAISSSGGRTYYADSVKGRFTISRDNAKNTVYLQMNSLKPEDTAVYYCADLVFSWWTFEYWGQGTQVTVSS” as the sequence, how does the “polyreactivity (PSR sort gate)” value read?
The value was “high polyreactivity”.

With “QVHLVESGGGLVQAGGILRLSCAASGRTFPGYAMGWYRQAPGKERELVAAITYTGGDTHYADSVKGRFTISRDNAKNTVYLQMNSLKPEDTAVYYCAAVYYRGIQSYDYWGQGTQVTVSS” as the sequence, how does the “polyreactivity (PSR sort gate)” value read?
The value was “low polyreactivity”.

Which “polyreactivity (PSR sort gate)” value does the source give for “QVQLVESGGGLVQAGGSLRLSCAASGSIIGSYAMGWYRQAPGKERELVAAISKSGGSTYYADSVKGRFTISRDNAKNTVYLQMNSLKPEDTAVYYCAARAYRYAYRAYDYWGQGTQVTVSS” here?
Its value is “high polyreactivity”.

For “QVQLVESGGGLVQAGGSLRLSCAASGFTFGYYAMGWYRQAPGKERELVAAITWNGGSTYYADSVKGRFTISRDYAKNTVYLQMNSLKPEDTAVYYCAAVYKYIQRYDYWGQGTQVTVSS”, which “polyreactivity (PSR sort gate)” value is on record?
Its value is “high polyreactivity”.

For “QVQLVESGGGLVQAVGSLRLSCAASGSTLVYYAMGWYRQAPGKERELVATITRSGGNTYYADSVKGRFTISRDNAKNTVYLQMNSLNPEDTAVYYWAARRLYGSQRGYWGQGTQVTVSS”, which “polyreactivity (PSR sort gate)” value is on record?
Its value is “high polyreactivity”.

For “QVQLVESGGGLVQAGGSLRLSCAASGYTFSAYAMGWYRQAPGKERELVAVINRSGVRTYYADSVKGRFTISRDNAKNTVYLQMNSLKPEDTAVYYCAAPPRANLFDYWGQGTQVTVSS”, which “polyreactivity (PSR sort gate)” value is on record?
The value was “high polyreactivity”.

Which “polyreactivity (PSR sort gate)” value does the source give for “QVQLEDSGGGLVQAGGSLRLSCAASGRTFVFKAMGWYRPAPGKERELVAAITISGGSTYYADSVKGRFTISRDNAKNTVYLQMNSLKPEDTAVYSCNADSKIEVFSYIYDYWGQGTQVTVSS” here?
The value was “high polyreactivity”.

With “QVQLVESGGGLVQAGGSLRLSCAASGSIFRPYTMGWYRQAPGKERELVATISSTGITNYADSVKGRFTISRDNAKNTVYLQMNSLKPEDTAVYYCAARGRYVTPQPSYDYWGQGTQVTVSS” as the sequence, how does the “polyreactivity (PSR sort gate)” value read?
The value was “high polyreactivity”.

For “QVHLVESGGGLVQAGGILRLSCAASGRTFLWYAMGWSRQAPGKERELVAAISKRGGSTYYADSVKGRFTISRDKAKNTVYLQMNSLKPVDTAVYYCAAEKRYSSYDYWGQGTQVSVSS”, which “polyreactivity (PSR sort gate)” value is on record?
The value was “high polyreactivity”.

With “QVQLVESGGGLVQAGGSLRLSCAASGSTFNLYAMGWYRQAPGKERELVAAISDGDSSTYYADSVKGRFTISRDNAKNTVYLQMNSLKPEDTAVYYCAADFSVYTEEDDSWGQGTQVTVSS” as the sequence, how does the “polyreactivity (PSR sort gate)” value read?
The value was “low polyreactivity”.

Which “polyreactivity (PSR sort gate)” value does the source give for “QVQLVESGGGLVQAGGSLRLSCSASGFTFRYYTMGWYRQAPGKERELVAAISRSSGSRTYYADSVKGRFTISRDNAKNTVYLQMNSLKPEDTAVYYCNADPAYQFDYWGQGTQVTVSS” here?
The value was “high polyreactivity”.

Which “polyreactivity (PSR sort gate)” value does the source give for “QVQLVESGGGLVQAGGSLRLRCAASGLIFPYNAMGWYRQAPGKERELVAAIDTRGSSTYYADSVKGRFTISRDNAKNTVYLQMNSLKPEDSAVYYCNARTGRSPTGFRYWGQGTEVTVSS” here?
Its value is “high polyreactivity”.

Which “polyreactivity (PSR sort gate)” value does the source give for “QVQLVESGGGLVQAGGSLRISCAASGRIFQYYSMGWYRQAPGKERELLAAMSSRGGSTTYADSVKGRFTISRDNAKNTVYLQMNRLKPEDTAVYYCASDWYYYPQYRQRYYYWGQGTQVTVSS” here?
The value was “high polyreactivity”.

Which “polyreactivity (PSR sort gate)” value does the source give for “QVQHVESGGGLVQAGGSLRLSCAASGYIFPGSAMGWYRPAPGKERELVAAISTSGGYTYYADSVKGRFTISRDNAKNTVYFQMNSLNPEVTAVYYCAADRYSTDPYAKGTEFYYWGQGTQVTVSS” here?
The value was “low polyreactivity”.

For “QVQLVESGGGLVQAGGSLRLSCAASGRTFYRNAMGWYRQAPGKERELVAAISSTGSTYSADSVKGRFTISRDNAKNTVYLQMNSLKPEDTAVYYCARGVHGIFGYWGQGTQVTVSS”, which “polyreactivity (PSR sort gate)” value is on record?
The value was “low polyreactivity”.

For “QVQLVESGGGIVQAGGSLRLSCAASGFIIRPYAMGWYRQAPGKERELVAAITGGGSTYYADSVKGRFTISRDNAKNTVYLQMNSLKPEDTAVYYCNADRRRRSGGFAGWHFQRNVYWGQGTQVTLSS”, which “polyreactivity (PSR sort gate)” value is on record?
The value was “low polyreactivity”.

For “QVQLVESGGGLVQAGGSLRLSCAASGLIFVINAMGCYRQAPGKERELVATISSGVSTNNADSVKGRFTISRDNAKNTVYLQMYSLKPEDTAVYYCNKGQTVSRGYRLYERFVYWGQGTQVTVSS”, which “polyreactivity (PSR sort gate)” value is on record?
The value was “low polyreactivity”.

With “QVQLVESGGGLVQAGGSLRLSCAASGFTFYANAMGWYRQAPGKERELVAAISKSGGRTYYADSVKGRFTISRDNAKNTVYLQMNSLKPEDTAVYYCAAVGSVNYEADFDYWGQGTQVTVSS” as the sequence, how does the “polyreactivity (PSR sort gate)” value read?
Its value is “high polyreactivity”.

With “QVQHVESGGGLVQAGGSLRLSCAASGGIFYPNAMGWYRQAPGKERELVAAISSGGGSTYYADSVKGRFTISRDNAKNTVYLQMNSLKPEDTSGYYCAASADRLKSDVESDYWGQGTLVTVSS” as the sequence, how does the “polyreactivity (PSR sort gate)” value read?
The value was “low polyreactivity”.

For “QGQLVESGGGLVQAGGRLRLSCAASGFTFRHNAMGWYRQAPGKETELVAAISWSDGSTYADSVKGRFTISRDNAKNTVYLQMNSLKPEDTAVYYCNADYPSYRYFTGRDYWGQGTQVTVSS”, which “polyreactivity (PSR sort gate)” value is on record?
The value was “low polyreactivity”.

For “QVQLVESGGGLVQAGGSLRLSCAASGSTFYVYVMGGYRQAPGKERELVAAITSSGDITYYADSVKGRFTISRYNAKITVYLQMNSLIPEETAVYYCAASPFRRRYNGENDYWGQGTQVTGSS”, which “polyreactivity (PSR sort gate)” value is on record?
Its value is “high polyreactivity”.

Which “polyreactivity (PSR sort gate)” value does the source give for “QVQLVESGGGIVQAGGSLRLSCAASGRTLISYAMGWYRQAPGKERELVAAISWGGSSTYYADSVKWRFTISRDNAKNTVYLQRNSLKPEDTAVYYCNTVYYYWGKWRGTYDYWGLGTQVTVSS” here?
Its value is “high polyreactivity”.

Which “polyreactivity (PSR sort gate)” value does the source give for “QVQLVESGGGLVQAGGSLRLSCAASGATFWRYAMGWYRQAPGKERELVAAISTSGGSTRYADSVKGRFTISRDNAKNTVYLQMNSLKPEDTAVYYCNAQHLARMDYWGQGTQVTVSS” here?
The value was “high polyreactivity”.

For “QVQLVESGGGLDQAGGSLRLSCAASGRTFYRYAMGWYRQEPGKERELVATISRSGGSTYYADSVKGRFTISRDNAKNTVYLQMNSLKPEDTAVYYCNAEGYPWGFYTYDYWGQGTQVTVSS”, which “polyreactivity (PSR sort gate)” value is on record?
The value was “low polyreactivity”.

With “QVHIVESGGGLVQAGGSLRISCAASGRILLLYDMGWYRQAPGKERELVAAINWDGGYSYADSVKGRFTISRDNANNTVFLQMNSLKPADTAVYYCAKDDIWEHYDYWGQGTQVTVSS” as the sequence, how does the “polyreactivity (PSR sort gate)” value read?
Its value is “low polyreactivity”.

For “QVQLVESGGGLVQAGGSLRLSCAASGSIFGRYVKGWYRQAPGKERELVATISSGGSTYYADSVKGRFTISRDNAKNTVYLQMNSLKPEDTAVYYCAASYSRFVDWIGDPGYDYWGQGTQVTVSS”, which “polyreactivity (PSR sort gate)” value is on record?
The value was “low polyreactivity”.

Which “polyreactivity (PSR sort gate)” value does the source give for “QVHLQESGGGMVQAGGSLRLSCAESGNIFLGDTMGWYRQPPGKEREFVAGIARGGNPYYADSLKGRFTISRNNAKNTVYLQKNSLKPEDTAVHYCAFLRSHASDYIYWGQGTQVTVSS” here?
Its value is “low polyreactivity”.

Which “polyreactivity (PSR sort gate)” value does the source give for “QVQLVESGGGLVQAGGSLRLSCAASGRTFYAYAMGWYRQAPGKERELVAAITKRDGITFYADSVKGRFTISRDNAKNTVYLQMNSLKPEDTAVYYCAATGYVGGIYGHYPRGYWGQGTQVTVSS” here?
Its value is “high polyreactivity”.
